From patent US20100167314A1 (JAPAN SCIENCE AND TECHNOLOGY AGENCY, published 2010) come the findings set out here.

The chains are these.
B1: mouse IRBIT (IP3 receptor-binding protein; IP3R-binding protein released with inositol 1,4,5-trisphosphate) (other)
chain: MSMPDAMPLPGVGEELKQAKEIEDAEKYSFMATVTKAPKKQIQFADDMQEFTKFPTKTGRRSLSRSISQSSTDSYSSAASYTDSSDDEVSPREKQQTNSKGSSNFCVKNIKQAEFGRREIEIAEQDMSALISLRKRAQGEKPLAGAKIVGCTHITAQTAVLIETLCALGAQCRWSACNIYSTQNEVAAALAEAGVAVFAWKGESEDDFWWCIDRCVNMDGWQANMILDDGGDLTHWVYKKYPNVFKKIRGIVEESVTGVHRLYQLSKAGKLCVPAMNVNDSVTKQKFDNLYCCRESILDGLKRTTDVMFGGKQVVVCGYGEVGKGCCAALKALGAIVYITEIDPICALQACMDGFRVVKLNEVIRQVDVVITCTGNKNVVTREHLDRMKNSCIVCNMGHSNTEIDVTSLRTPELTWERVRSQVDHVIWPDGKRVVLLAEGRLLNLSCSTVPTFVLSITATTQALALIELYNAPEGRYKQDVYLLPKKMDEYVASLHLPSFDAHLTELTDDQAKYLGLNKNGPFKPNYYRY
notes: also called Mouse-derived IRBIT

The target of experiment [1] is T1, myc-tagged CPSF160 subunit of mouse CPSF (mouse, UniProt Q9EPU4 1-1441, limits assumed).
T1 construct: Co-expressed with IRBIT in COS cells; not shown: myc tag
T1 sequence (looked up): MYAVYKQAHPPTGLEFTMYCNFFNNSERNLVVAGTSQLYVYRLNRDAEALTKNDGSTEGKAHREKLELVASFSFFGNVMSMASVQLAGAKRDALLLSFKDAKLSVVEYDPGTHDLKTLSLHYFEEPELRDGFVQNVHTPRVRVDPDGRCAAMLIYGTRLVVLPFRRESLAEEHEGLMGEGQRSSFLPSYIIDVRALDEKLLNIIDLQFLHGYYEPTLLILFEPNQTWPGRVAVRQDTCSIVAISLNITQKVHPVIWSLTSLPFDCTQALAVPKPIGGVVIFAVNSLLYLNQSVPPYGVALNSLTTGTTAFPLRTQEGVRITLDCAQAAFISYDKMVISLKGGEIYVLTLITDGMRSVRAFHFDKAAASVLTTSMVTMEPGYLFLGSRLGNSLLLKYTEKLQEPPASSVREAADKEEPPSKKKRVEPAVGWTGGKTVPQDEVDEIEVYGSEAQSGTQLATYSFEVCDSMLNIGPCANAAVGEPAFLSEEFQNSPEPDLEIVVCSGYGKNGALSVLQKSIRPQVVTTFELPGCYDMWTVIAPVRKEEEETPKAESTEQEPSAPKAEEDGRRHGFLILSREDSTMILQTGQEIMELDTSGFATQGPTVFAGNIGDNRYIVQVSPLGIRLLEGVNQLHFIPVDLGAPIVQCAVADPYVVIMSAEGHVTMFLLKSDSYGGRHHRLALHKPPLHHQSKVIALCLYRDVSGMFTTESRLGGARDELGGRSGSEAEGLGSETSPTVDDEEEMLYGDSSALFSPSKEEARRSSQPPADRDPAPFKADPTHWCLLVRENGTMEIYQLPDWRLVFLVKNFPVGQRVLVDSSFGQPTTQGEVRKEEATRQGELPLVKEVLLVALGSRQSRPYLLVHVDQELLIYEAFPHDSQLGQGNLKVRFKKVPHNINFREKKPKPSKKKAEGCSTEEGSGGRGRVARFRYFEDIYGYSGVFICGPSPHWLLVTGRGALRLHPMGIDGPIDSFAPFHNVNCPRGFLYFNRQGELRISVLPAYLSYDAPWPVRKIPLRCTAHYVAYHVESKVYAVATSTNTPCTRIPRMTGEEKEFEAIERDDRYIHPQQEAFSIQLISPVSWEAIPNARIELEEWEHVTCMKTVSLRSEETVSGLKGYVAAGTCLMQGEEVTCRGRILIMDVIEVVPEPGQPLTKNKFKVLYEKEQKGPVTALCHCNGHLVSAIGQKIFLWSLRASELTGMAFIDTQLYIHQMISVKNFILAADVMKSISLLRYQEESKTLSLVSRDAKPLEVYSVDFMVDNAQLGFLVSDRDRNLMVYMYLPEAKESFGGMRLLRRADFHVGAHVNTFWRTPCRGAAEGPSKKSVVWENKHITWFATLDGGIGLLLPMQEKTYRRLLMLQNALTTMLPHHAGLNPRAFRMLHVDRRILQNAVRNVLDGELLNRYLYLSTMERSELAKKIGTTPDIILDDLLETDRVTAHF
Put plainly: co-expression in COS cells, co-immunoprecipitation, detection with anti-IRBIT and anti-myc antibodies. How it is done:
CPSF is a group of conjugated proteins consisting of 4 subunits: CPSF160, CPSF100, CPSF73, and CPSF30. First, to reveal to which one of the 4 subunits IRBIT binds, myc-tagged cDNAs prepared by tagging each subunit with myc were expressed together with IRBIT in various combinations by COS cells or the like and then the way in which coprecipitation occurs upon immunoprecipitation of IRBIT or CPSF was examined.
DNA was prepared by fusing DNA encoding an myc tag to cDNA encoding the full-length of or each subunit of CPSF. The thus prepared DNA was inserted into a vector for mammals. Meanwhile, cDNA encoding IRBIT was also inserted into the same vector. COS cells were transformed with the thus prepared vector and then the above DNA was co-expressed.
Cells were separated by centrifugation and then lysed. Cytoplasmic fractions were collected and then the binding of IRBIT to CPSF was detected using an anti-IRBIT antibody (JP2004-129612 A) and an anti-myc antibody.

In experiment [2] the target is B1. Put plainly: immunoprecipitation from mouse cerebellum with anti-IRBIT antibody. How it is done:
(1) Mouse IRBIT and Myc-PIPKIIα, β, or γ were over-expressed in COS-7, followed by immunoprecipitation. Specifically, cells were solubilized with a lysis buffer (10 mM Hepes, 100 mM NaCl, 2 mM EDTA, 1% P-40, pH 7.4) and then centrifuged (20000×g, 30 minutes) to collect supernatants. Subsequently, an anti-Myc antibody or an anti-IRBIT antibody was added and then reaction was performed for 1 hour. Furthermore, protein G Sepharose® was added before one hour reaction, and the immune complex was washed with a lysis buffer and then eluted with a SDS-PAGE sample buffer. Subsequently, Western blotting was performed using an anti-Myc antibody or an anti-IRBIT antibody. As a result, IRBIT was coprecipitated with Myc-PIPKIIα, β, and γ (FIG. 4). (2) Immunoprecipitation was performed using an anti-IRBIT antibody and the mouse cerebellum, so that PIPKIIα was coprecipitated (FIG. 5). The in vivo binding of IRBIT with PIPKII was confirmed based on the results. (3) Mouse IRBIT and Myc-PIPKIIγ were overexpressed in COS-7 and then immunostaining was performed. Specifically, after fixation with 4% paraformaldehyde, transmembrane treatment with 0.1% Triton X-100 and blocking treatment with 2% goat serum were performed, a mouse anti-Myc antibody and a rabbit anti-IRBIT antibody were added, and then reaction was performed at room temperature for 1 hour. […]

Take B1: the binding result in experiment [1] is reported as “binds”.

B2: mouse cerebellum PIPKIIα (enzyme, UniProt O70172 2-405, looked up)
chain: ATPGNLGSSVLASKTKTKKKHFVAQKVKLFRASDPLLSVLMWGVNHSINELSHVQIPVMLMPDDFKAYSKIKVDNHLFNKENMPSHFKFKEYCPMVFRNLRERFGIDDQDFQNSLTRSAPLPNDSQARSGARFHTSYDKRYVIKTITSEDVAEMHNILKKYHQYIVECHGVTLLPQFLGMYRLNVDGVEIYVIVTRNVFSHRLSVYRKYDLKGSTVAREASDKEKAKELPTLKDNDFINEGQKIYIDDNNKKIFLEKLKKDVEFLAQLKLMDYSLLVGIHDVERAEQEEVECEENDGEEEGESDSTHPIGTPPDSPGNTLNSSPPLAPGEFDPNIDVYAIKCHENAPRKEVYFMAIIDILTHYDAKKKAAHAAKTVKHGAGAEISTVNPEQYSKRFLDFIGHIL
notes: Endogenous protein coprecipitated with an anti-IRBIT antibody
Take B2: the binding result in experiment [2] is on record as “binds”.
